# Assay results reported in publication doi:10.1101/693663 (bioRxiv, 2019).
# Changes are numbered by the printed parent chain. In names and notes the source's numbering stands.
# T1: GST-ASK2 SAM domain (human, UniProt O95382 1216-1288)
# T1 sequence (looked up): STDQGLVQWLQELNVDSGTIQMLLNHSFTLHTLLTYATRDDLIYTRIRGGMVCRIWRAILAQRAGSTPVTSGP
# B1: ASK3(1241–1313), C-terminal SAM domain of ASK3 (domain or fragment, human, UniProt Q6ZN16 1241-1313, looked up)
# chain: DKELIDWLRLQGADAKTIEKIVEEGYTLSDILNEITKEDLRYLRLRGGLLCRLWSAVSQYRRAQEASETKDKA
# B2: ASK3 SAM domain K1242E (domain or fragment, human, UniProt Q6ZN16 1241-1313, looked up)
# chain: B1 chain with K2E
# B3: ASK3 SAM domain V1262N (domain or fragment, human, UniProt Q6ZN16 1241-1313, looked up)
# chain: B1 chain with V22N
# B4: ASK3 SAM domain Q1304A (domain or fragment, human, UniProt Q6ZN16 1241-1313, looked up)
# chain: B1 chain with Q64A
# How the values were obtained:
# [1] = target: ASK2(1216–1288), C-terminal SAM domain of ASK2 (human) (UniProt O95382); test: AUC
# [2] = target: ASK1(1290–1374), C-terminal SAM domain of ASK1 (human) (UniProt Q99683); test: SAXS
# GST-ASK2 SAM domain = target: T1, GST-ASK2 SAM domain; test: pull-down
# SAXS = target: the molecule itself; test: SAXS
# SEC = target: the molecule itself; test: SEC
molecule,measurement,setting,value
"ASK2(1216–1288), C-terminal SAM domain of ASK2 (from UniProt O95382 1216-1288) (domain or fragment)",stoichiometry N,[1],2
"ASK1(1290–1374), C-terminal SAM domain of ASK1 (from UniProt Q99683 1290-1374) (domain or fragment)",stoichiometry N,[2],2
B1,binding result,GST-ASK2 SAM domain,binds
same,stoichiometry N,SAXS,6
B2,binding result,SEC,binds
B3,binding result,SEC,binds
B4,binding result,SEC,binds
